Tests used:
[1] = target: human plasmin (human, UniProt P00747 97-810, limits assumed); test: protease inhibition, apparent Ki (Ki,app)
[2] = target: T1, human plasma kallikrein (human, UniProt P03952 20-638); test: protease inhibition, apparent Ki (Ki,app)
[3] = target: porcine pancreatic kallikrein (porcine, UniProt P00752 8-246); test: protease inhibition, apparent Ki (Ki,app)
[4] = target: human plasma factor XIa (human, UniProt P03951 19-625); test: protease inhibition, apparent Ki (Ki,app)
[5] = target: T1, human plasma kallikrein; test: comparison of Ki,app values, reference aprotinin
[6] = target: T1, human plasma kallikrein; test: phage display selection

T1 sequence (P03952 20-638 limits assumed): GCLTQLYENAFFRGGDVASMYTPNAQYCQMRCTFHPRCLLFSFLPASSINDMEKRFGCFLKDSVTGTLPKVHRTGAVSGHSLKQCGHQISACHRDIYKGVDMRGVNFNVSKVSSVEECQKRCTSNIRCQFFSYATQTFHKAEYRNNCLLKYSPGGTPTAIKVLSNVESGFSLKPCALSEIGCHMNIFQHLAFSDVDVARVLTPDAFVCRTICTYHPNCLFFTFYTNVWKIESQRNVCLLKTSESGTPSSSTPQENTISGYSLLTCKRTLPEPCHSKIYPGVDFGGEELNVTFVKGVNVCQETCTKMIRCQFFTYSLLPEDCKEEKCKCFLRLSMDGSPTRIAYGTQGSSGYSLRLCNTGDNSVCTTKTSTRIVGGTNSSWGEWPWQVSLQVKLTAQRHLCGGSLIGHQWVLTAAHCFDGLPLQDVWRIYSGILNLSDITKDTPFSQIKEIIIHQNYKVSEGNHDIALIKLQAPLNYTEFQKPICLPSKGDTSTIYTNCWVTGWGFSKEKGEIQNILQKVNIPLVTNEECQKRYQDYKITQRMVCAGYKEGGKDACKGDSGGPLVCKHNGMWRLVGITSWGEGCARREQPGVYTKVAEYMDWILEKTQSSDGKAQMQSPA
Chain of human plasmin (P00747 97-810 limits assumed): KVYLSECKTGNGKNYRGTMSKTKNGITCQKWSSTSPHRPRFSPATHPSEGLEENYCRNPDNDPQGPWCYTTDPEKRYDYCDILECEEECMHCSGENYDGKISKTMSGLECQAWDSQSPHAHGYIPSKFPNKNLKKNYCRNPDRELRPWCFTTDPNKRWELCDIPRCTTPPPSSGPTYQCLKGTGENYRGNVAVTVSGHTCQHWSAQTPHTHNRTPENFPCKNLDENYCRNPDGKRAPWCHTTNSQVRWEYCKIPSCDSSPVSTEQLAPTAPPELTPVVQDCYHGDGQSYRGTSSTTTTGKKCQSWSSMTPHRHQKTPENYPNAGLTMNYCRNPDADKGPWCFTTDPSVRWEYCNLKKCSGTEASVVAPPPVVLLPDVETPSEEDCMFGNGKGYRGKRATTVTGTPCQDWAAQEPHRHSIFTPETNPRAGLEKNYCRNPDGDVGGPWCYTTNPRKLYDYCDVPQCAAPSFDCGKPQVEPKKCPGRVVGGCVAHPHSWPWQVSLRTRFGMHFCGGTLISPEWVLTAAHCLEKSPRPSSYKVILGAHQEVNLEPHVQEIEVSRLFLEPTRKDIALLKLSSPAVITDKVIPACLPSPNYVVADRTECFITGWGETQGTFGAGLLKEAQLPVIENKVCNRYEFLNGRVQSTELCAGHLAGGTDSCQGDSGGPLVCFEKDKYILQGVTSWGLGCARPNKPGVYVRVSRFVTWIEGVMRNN
Chain of porcine pancreatic kallikrein (P00752 8-246): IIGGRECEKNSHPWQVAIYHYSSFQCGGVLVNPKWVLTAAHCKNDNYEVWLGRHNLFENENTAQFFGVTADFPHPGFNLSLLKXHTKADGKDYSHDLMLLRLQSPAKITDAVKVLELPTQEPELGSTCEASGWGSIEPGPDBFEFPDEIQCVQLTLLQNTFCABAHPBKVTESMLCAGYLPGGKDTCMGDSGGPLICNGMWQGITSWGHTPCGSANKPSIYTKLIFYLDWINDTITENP

| Binder | binding result [6] | further results |
| --- | --- | --- |
| PEP-1 KI polypeptide (designed binder, also called DX88) EAMHSFCAFKADDGPCRAAHPRWFFNIFTRQCEEFIYGGCEGNQNRFESLEECKKMCTRD |  | Ki [1]: 140 nM; Ki [2]: 0.044 nM; Ki [3]: 27000 nM; Ki [4]: 10 nM; fold higher affinity (Ki,app) than aprotinin [5]: 1000 fold |
| KKII/3#6 (designed binder, also called LACI(K1) variant) MHSFCAFKADDGHCKANHQRFFFNIFTRQCEEFSYGGCGGNQNRFESLEECKKMCTRD | binds |  |
| KKII/3#1 (designed binder, also called LACI(K1) variant) MHSFCAFKADDGHCKASLPRFFFNIFTRQCEEFIYGGCEGNQNRFESLEECKKMCTRD | binds |  |
| KKII/3#2 (designed binder, also called LACI(K1) variant) MHSFCAFKADDGPCKANHLRFFFNIFTRQCEEFSYGGCGGNQNRFESLEECKKMCTRD | binds |  |
| KKII/3#3 (designed binder, also called LACI(K1) variant) MHSFCAFKADDGHCKANHQRFFFNIFTRQCEEFTYGGCGGNQNRFESLEECKKMCTRD | binds |  |
| KKII/3#4 (designed binder, also called LACI(K1) variant) MHSFCAFKADDGHCKANHQRFFFNIFTRQCEQFTYGGCAGNQNRFESLEECKKMCTRD | binds |  |
| KKII/3#5 (designed binder, also called LACI(K1) variant) MHSFCAFKADDGHCKASLPRFFFNIFTRQCEEFIYGGCGGNQNRFESLEECKKMCTRD | binds |  |
| KKII/3#10 (designed binder, also called LACI(K1) variant) MHSFCAFKADDGHCKGAHLRFFFNIFTRQCEEFIYGGCEGNQNRFESLEECKKMCTRD | binds |  |
| KKII/3#9 (designed binder, also called LACI(K1) variant) MHSFCAFKADDGHCKANHQRFFFNIFTRQCEEFSYGGCGGNQNRFESLEECKKMCTRD | binds |  |

Reference: patent US20040053206A1 (DYAX, published 2004)
